# Source: article PMC7111274
# How the values were obtained:
# Assay in all cases: SEC
# [1] = molecular target: PEDV 3CL^pro variant Q295A (porcine epidemic diarrhea virus (FJZZ strain))
# [2] = molecular target: PEDV 3CL^pro variant R4A (porcine epidemic diarrhea virus (FJZZ strain))
# [3] = molecular target: PEDV 3CL^pro variant R294A (porcine epidemic diarrhea virus (FJZZ strain))
# [4] = molecular target: PEDV 3CL^pro variant S138A (porcine epidemic diarrhea virus (FJZZ strain))
substance,measurement,setting,value
PEDV 3CL^pro variant Q295A (enzyme),stoichiometry N,[1],2
PEDV 3CL^pro variant R4A (enzyme),stoichiometry N,[2],2
PEDV 3CL^pro variant R294A (enzyme),stoichiometry N,[3],2
PEDV 3CL^pro variant S138A (enzyme),stoichiometry N,[4],2
